According to PMC10992996, “Human CRB1 and CRB2 form homo- and heteromeric protein complexes in the retina” (Life Science Alliance, 2024):

Biological target: T1, CRB1-FLAG p.N1317H (human, UniProt P82279 26-1406, p.N1317H)
T1 construct: Crumbs homolog 1, canonical form, human, cDNA NM_202153 as printed, with a patient missense mutation; Made by site-directed mutagenesis of m1; also called CRB1 p.N1317H; p.C1317H; source: HEK293T, transfected, in lysate; not shown: Strep-Strep-FLAG, N-terminal, kept
T1 sequence (looked up): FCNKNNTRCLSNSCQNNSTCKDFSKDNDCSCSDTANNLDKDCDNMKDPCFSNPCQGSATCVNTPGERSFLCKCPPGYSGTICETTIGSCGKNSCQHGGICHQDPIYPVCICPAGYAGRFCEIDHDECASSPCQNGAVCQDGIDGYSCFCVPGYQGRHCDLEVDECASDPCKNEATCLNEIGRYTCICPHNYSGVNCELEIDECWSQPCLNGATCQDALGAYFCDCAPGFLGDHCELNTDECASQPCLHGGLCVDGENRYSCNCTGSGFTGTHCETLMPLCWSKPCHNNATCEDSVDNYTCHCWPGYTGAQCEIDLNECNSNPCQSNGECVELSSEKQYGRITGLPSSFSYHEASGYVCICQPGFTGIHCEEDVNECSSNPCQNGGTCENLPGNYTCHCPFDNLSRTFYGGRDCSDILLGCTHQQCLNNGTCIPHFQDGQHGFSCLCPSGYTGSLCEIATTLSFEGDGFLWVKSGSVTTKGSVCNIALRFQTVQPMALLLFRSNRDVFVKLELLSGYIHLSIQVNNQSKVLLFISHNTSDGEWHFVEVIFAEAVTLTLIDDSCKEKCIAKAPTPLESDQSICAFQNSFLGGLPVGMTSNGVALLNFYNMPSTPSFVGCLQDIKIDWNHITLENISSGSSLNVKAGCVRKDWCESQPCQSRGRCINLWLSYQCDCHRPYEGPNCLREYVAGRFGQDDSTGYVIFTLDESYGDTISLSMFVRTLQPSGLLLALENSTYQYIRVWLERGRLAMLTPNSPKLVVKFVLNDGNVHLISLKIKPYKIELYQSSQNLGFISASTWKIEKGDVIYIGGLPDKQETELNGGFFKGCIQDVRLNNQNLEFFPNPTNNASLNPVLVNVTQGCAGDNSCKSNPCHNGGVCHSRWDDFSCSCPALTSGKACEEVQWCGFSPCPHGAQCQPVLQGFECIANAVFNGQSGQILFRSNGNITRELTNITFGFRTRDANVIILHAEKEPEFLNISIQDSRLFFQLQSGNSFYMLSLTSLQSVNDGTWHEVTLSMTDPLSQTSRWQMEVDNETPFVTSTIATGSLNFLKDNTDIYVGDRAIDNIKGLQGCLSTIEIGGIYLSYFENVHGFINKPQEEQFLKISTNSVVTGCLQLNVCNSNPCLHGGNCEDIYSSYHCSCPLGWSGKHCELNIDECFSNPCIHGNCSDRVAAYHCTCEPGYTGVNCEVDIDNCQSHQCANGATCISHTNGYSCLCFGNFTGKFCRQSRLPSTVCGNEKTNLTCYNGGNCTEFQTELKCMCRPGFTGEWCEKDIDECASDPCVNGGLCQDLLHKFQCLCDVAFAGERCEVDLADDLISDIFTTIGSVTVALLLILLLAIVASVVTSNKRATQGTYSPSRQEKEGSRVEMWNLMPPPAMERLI
Test: co-IP; HEK293T cells co-transfected pairwise with a FLAG and an HA construct, 48 h; lysis in TBS (30 mM Tris-HCl pH 7.4, 150 mM NaCl) with 0.5% Nonidet P40; FLAG-IP on ANTI-FLAG M2 Affinity Gel 60-90 min at 4°C, elution with FLAG peptide; Western blot with HA and FLAG antibodies; for mutants HA/FLAG signal in eluates relative to WT, three biological replicates
Conditions: partners not purified

B1: Human canonical CRB2 (Crumbs homolog 2) (natural protein)
chain: not shown
notes: Crumbs homolog 2, human, cDNA NM_173689; Stood as bait (FLAG copy) and as prey (HA copy) in the pairwise co-IP matrix; each copy carries only one of the two tags; The FLAG copy was the bait of the mass spectrometry pull-downs; also called CRB2-FLAG; CRB2-HA; source: HEK293T, transfected, in lysate (co-IP); HEK293T, transfected, FLAG-IP on beads, washed and purified with 0.01% SDS (retina …)
percent reduction of the interaction relative to CRB1 WT: 24%
